Reference: patent US20240132578A1

Tests used:
Experiment in all cases: cell-based or functional assay
[1] = target: HIV-1 Env of isolate MGRM-F1-015 (pseudovirus) (HIV-1)
[2] = target: HIV-1 envelope glycoprotein (Env) of isolate MGRM-Chronic-B-020, on pseudovirus (HIV-1)
[3] = target: HIV-1 CMU02 Env (HIV-1)
[4] = target: HIV-1 Env of isolate MGRM-F1-016 (pseudovirus) (HIV-1)
[5] = target: HIV-1 92TH021 Env (HIV-1)
[6] = target: HIV-1 Env of isolate MGRM-C-025 (subtype C), on pseudovirus (HIV-1)
[7] = target: HIV-1 Env of isolate 98CN009 (HIV-1)
[8] = target: HIV-1 Env of isolate MGRM-C-024 (subtype C), on pseudovirus (HIV-1)
[9] = target: HIV-1 Env of isolate 92TH021 (pseudovirus) (HIV-1)
[10] = target: HIV-1 Env of isolate 94 KE 105 (pseudovirus) (HIV-1)
[11] = target: HIV-1 Env of isolate MGRM-G-024 (subtype G) (HIV-1)
[12] = target: HIV-1 Env of isolate MGRM-C-014 (subtype C), on pseudovirus (HIV-1)
[13] = target: HIV-1 Env of isolate MGRM-AG-013 (subtype AG) (HIV-1)
[14] = target: HIV-1 Env of isolate MGRM-D-014 (pseudovirus) (HIV-1)
[15] = target: HIV-1 Env of isolate MGRM-F1-023 (HIV-1)
[16] = target: HIV-1 Env of isolate MGRM-AE-004 (subtype AE) (HIV-1)
[17] = target: HIV-1 Env of isolate VLGCA1 (subtype A) (HIV-1)
[18] = target: HIV-1 Env of isolate MGRM-Chronic-B-008 (HIV-1)
[19] = target: HIV-1 JR-CSF Env R419A (HIV-1 (isolate JR-CSF)) (UniProt P20871)
[20] = target: HIV-1 Env of isolate MGRM-A-011 (subtype A) (HIV-1)
[21] = target: HIV-1 Env of isolate MGRM-AE-003 (subtype AE) (HIV-1)
[22] = target: HIV-1 Env of isolate MGRM-D-028 (HIV-1)
[23] = target: HIV-1 JR-CSF Env F468A (HIV-1 (isolate JR-CSF)) (UniProt P20871)
[24] = target: HIV-1 Env of isolate MGRM-AG-003 (pseudovirus) (HIV-1)
[25] = target: HIV-1 MGRM-D-001 envelope protein (Env) on pseudovirus (HIV-1)
[26] = target: HIV-1 Env of isolate MGRM-AG-005 (pseudovirus) (HIV-1)
[27] = target: HIV-1 Env of isolate MGRM-AG-006 (pseudovirus) (HIV-1)
[28] = target: HIV-1 MGRM-AE-006 Env (pseudovirus) (HIV-1)
[29] = target: HIV-1 MGRM-AG-012 Env (pseudovirus) (HIV-1)
[30] = target: HIV-1 APV-6 envelope (Env) on pseudovirus (HIV-1)
[31] = target: HIV-1 Env of isolate APV_17, clade B (HIV-1)
[32] = target: HIV-1 MGRM-AG-003 Env (pseudovirus) (HIV-1)
[33] = target: HIV-1 IAVI-C3 envelope (Env) on pseudovirus (HIV-1)
[34] = target: HIV-1 Env of isolate MGRM-D-016 (clade D pseudovirus) (HIV-1)
[35] = target: HIV-1 Env of isolate MGRM-Chronic-B-008, clade B (HIV-1)
[36] = target: HIV-1 Env of isolate 92RW020 (Clade A) (HIV-1)

5345_I01 (PGT-137) (antibody), sequence (VH): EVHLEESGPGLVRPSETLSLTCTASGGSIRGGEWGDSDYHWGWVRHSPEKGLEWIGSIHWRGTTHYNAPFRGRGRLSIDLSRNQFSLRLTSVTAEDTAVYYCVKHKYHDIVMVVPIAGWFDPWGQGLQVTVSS
5345_I01 (PGT-137) (antibody), sequence (VL): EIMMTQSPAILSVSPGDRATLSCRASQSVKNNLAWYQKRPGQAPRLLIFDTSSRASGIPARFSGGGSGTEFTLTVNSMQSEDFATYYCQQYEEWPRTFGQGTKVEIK
4995_E20 (PGT-142) (antibody), sequence (VH): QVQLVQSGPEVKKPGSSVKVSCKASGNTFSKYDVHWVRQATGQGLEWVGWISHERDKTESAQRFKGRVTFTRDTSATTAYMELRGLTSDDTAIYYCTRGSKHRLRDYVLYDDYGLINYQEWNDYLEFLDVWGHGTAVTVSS
4995_E20 (PGT-142) (antibody), sequence (VL): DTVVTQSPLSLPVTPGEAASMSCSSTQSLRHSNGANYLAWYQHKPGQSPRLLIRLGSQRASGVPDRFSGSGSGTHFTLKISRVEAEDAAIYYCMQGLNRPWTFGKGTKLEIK
5329_C19 (PGT-136) (antibody), sequence (VH): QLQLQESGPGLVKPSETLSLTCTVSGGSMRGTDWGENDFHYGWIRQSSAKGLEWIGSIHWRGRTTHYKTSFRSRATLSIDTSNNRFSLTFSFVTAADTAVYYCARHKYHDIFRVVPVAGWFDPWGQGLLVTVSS
5329_C19 (PGT-136) (antibody), sequence (VL): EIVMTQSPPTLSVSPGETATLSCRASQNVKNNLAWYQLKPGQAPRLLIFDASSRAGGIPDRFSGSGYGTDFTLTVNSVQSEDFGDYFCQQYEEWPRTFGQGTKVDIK
4995_P16 (PGT-145) (antibody), sequence (VH): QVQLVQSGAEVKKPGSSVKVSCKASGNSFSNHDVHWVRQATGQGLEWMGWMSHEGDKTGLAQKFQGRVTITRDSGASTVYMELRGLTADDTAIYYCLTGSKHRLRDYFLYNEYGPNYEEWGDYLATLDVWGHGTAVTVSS
4995_P16 (PGT-145) (antibody), sequence (VL): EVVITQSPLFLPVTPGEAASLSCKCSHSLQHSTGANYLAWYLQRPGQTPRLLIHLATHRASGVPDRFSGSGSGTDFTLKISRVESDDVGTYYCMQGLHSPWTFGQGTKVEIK
4970_K22 (PGT-144) (antibody), sequence (VH): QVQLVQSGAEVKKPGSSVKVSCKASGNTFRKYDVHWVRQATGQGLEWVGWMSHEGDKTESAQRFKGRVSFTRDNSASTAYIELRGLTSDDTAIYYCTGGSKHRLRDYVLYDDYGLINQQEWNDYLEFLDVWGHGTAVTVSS
4970_K22 (PGT-144) (antibody), sequence (VL): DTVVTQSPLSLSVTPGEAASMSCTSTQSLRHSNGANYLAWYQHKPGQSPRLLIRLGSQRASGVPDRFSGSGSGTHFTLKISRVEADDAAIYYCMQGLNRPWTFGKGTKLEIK

Substance | IC50 (µg/mL), pseudovirus neutralization [1] | IC50, pseudovirus neutralization [2] | IC50, pseudovirus neutralization [3] | IC50 (µg/mL), pseudovirus neutralization [4] | IC50, pseudovirus neutralization [5] | IC50, pseudovirus neutralization [13] | IC50 (µg/mL), pseudovirus neutralization [14] | IC50 (µg/mL), pseudovirus neutralization [15] | IC50, pseudovirus neutralization [16] | IC50, pseudovirus neutralization [17] | IC50 (µg/mL), pseudovirus neutralization [18] | Fold IC50 increase relative to wild-type (pseudovirus neutralization) [19] | IC50, pseudovirus neutralization [20] | IC50, pseudovirus neutralization [21] | IC50 (µg/mL), pseudovirus neutralization [22] | Fold IC50 increase relative to wild-type (pseudovirus neutralization) [23] | IC50 (µg/mL), pseudovirus neutralization [24] | IC50 (ug/mL), pseudovirus neutralization [25] | IC50 (µg/mL), pseudovirus neutralization [26] | IC50 (µg/mL), pseudovirus neutralization [27] | further results
4838_L06 (PGT-121) (antibody) | 28.4 µg/mL | 0.004 µg/mL | > 10 µg/mL | 0.931 µg/mL | > 10 µg/mL | – | – | – | – | – | – | – | – | – | – | – | – | – | – | – | –
4995_P16 (PGT-145) (antibody) | – | – | – | – | – | – | – | – | – | – | – | – | – | – | – | – | – | – | – | – | IC50, single-round pseudovirus neutralization [6]: 0.044 µg/mL; IC50 (µg/mL), pseudovirus neutralization [7]: 0.136 µg/mL; IC50, single-round pseudovirus neutralization [8]: 0.174 µg/mL; IC50 (µg/mL), single-round pseudovirus neutralization [9]: 0.013 µg/mL; IC50 (µg/mL), single-round pseudovirus neutralization [10]: 1.32 µg/mL; IC50 (µg/mL), pseudovirus neutralization [11]: 0.06 µg/mL; IC50, single-round pseudovirus neutralization [12]: 5.82 µg/mL
5136_H01 (PGT-131) (antibody) | – | – | – | – | – | 0.03 µg/mL | 0.516 µg/mL | > 50 µg/mL | > 50 µg/mL | > 50 µg/mL | > 50 µg/mL | 1.7 fold | > 50 µg/mL | 1.41 µg/mL | > 50 µg/mL | 1.6 fold | – | – | – | – | –
5141_B17 (PGT-126) (antibody) | > 50 µg/mL | 0.021 µg/mL | > 10 µg/mL | > 50 µg/mL | 0.115 µg/mL | – | – | – | – | – | – | 1.2 fold | – | – | – | 0.7 fold | > 50 µg/mL | 0.0639 µg/mL | 1.21 µg/mL | 0.01 µg/mL | –
4877_D15 (PGT-122) (antibody) | 31.4 µg/mL | 0.005 µg/mL | > 10 µg/mL | 4.81 µg/mL | > 10 µg/mL | – | – | – | – | – | – | – | – | – | – | – | 43.7 µg/mL | 0.867 µg/mL | 33.9 µg/mL | 0.028 µg/mL | –
5345_I01 (PGT-137) (antibody) | – | – | – | – | – | > 50 µg/mL | > 50 µg/mL | > 50 µg/mL | > 50 µg/mL | > 50 µg/mL | > 50 µg/mL | – | > 50 µg/mL | > 50 µg/mL | > 50 µg/mL | – | – | – | – | – | –
4995_E20 (PGT-142) (antibody) | – | – | – | – | – | – | – | – | – | – | – | – | – | – | – | – | – | – | – | – | IC50, single-round pseudovirus neutralization [6]: 0.183 µg/mL; IC50 (µg/mL), pseudovirus neutralization [7]: 4 µg/mL; IC50, single-round pseudovirus neutralization [8]: 0.03 µg/mL; IC50 (µg/mL), single-round pseudovirus neutralization [9]: 0.002 µg/mL; IC50 (µg/mL), single-round pseudovirus neutralization [10]: 0.19 µg/mL; IC50 (µg/mL), pseudovirus neutralization [11]: 0.054 µg/mL; IC50, single-round pseudovirus neutralization [12]: 6.02 µg/mL
5114_A19 (PGT-128) (antibody) | – | – | – | – | – | 0.004 µg/mL | 0.013 µg/mL | 0.007 µg/mL | > 50 µg/mL | 0.838 µg/mL | 0.143 µg/mL | 0.5 fold | > 50 µg/mL | 0.18 µg/mL | > 50 µg/mL | 0.5 fold | – | – | – | – | –
5123_A06 (PGT-125) (antibody) | > 50 µg/mL | 0.087 µg/mL | > 10 µg/mL | > 50 µg/mL | 0.0066 µg/mL | – | – | – | – | – | – | 1 fold | – | – | – | 1 fold | > 50 µg/mL | 2.31 µg/mL | > 50 µg/mL | 0.008 µg/mL | –
4970_K22 (PGT-144) (antibody) | – | – | – | – | – | – | – | – | – | – | – | – | – | – | – | – | – | – | – | – | IC50, single-round pseudovirus neutralization [6]: 17.6 µg/mL; IC50 (µg/mL), pseudovirus neutralization [7]: > 50 µg/mL; IC50, single-round pseudovirus neutralization [8]: 2.06 µg/mL; IC50 (µg/mL), single-round pseudovirus neutralization [9]: 0.052 µg/mL; IC50 (µg/mL), single-round pseudovirus neutralization [10]: 0.29 µg/mL; IC50 (µg/mL), pseudovirus neutralization [11]: 7.92 µg/mL; IC50, single-round pseudovirus neutralization [12]: > 50 µg/mL
5329_C19 (PGT-136) (antibody) | – | – | – | – | – | > 50 µg/mL | > 50 µg/mL | > 50 µg/mL | > 50 µg/mL | > 50 µg/mL | > 50 µg/mL | – | > 50 µg/mL | > 50 µg/mL | > 50 µg/mL | – | – | > 10 µg/mL | – | – | –
5343_B08 (PGT-135) (antibody) | – | – | – | – | – | > 50 µg/mL | 2.21 µg/mL | 0.088 µg/mL | > 50 µg/mL | > 50 µg/mL | > 50 µg/mL | 3.9 fold | > 50 µg/mL | > 50 µg/mL | > 50 µg/mL | 1.1 fold | – | > 10 µg/mL | – | – | –
4858_P08 (PGT-123) (antibody) | > 50 µg/mL | 0.005 µg/mL | > 10 µg/mL | 4.95 µg/mL | > 10 µg/mL | – | – | – | – | – | – | 0.7 fold | – | – | – | 0.5 fold | > 50 µg/mL | 0.215 µg/mL | 0.149 µg/mL | 0.014 µg/mL | –
PGV04 (antibody) | – | – | – | – | – | – | – | 0.171 µg/mL | – | – | – | – | – | – | – | – | 0.058 µg/mL | – | 0.027 µg/mL | 1.23 µg/mL | IC50 (µg/mL), pseudovirus neutralization [9]: 1.29 µg/mL; IC50 (µg/mL), pseudovirus neutralization [11]: 0.033 µg/mL
5145_B14 (PGT-127) (antibody) | > 50 µg/mL | 0.05 µg/mL | – | > 50 µg/mL | – | – | – | – | – | – | – | 2.5 fold | – | – | – | 3 fold | > 50 µg/mL | – | > 50 µg/mL | 0.021 µg/mL | –
1496_C09 (PG9) (TCN-109) (antibody) | – | – | – | – | 0.103 µg/mL | – | – | – | – | – | – | – | – | – | – | – | – | – | – | – | IC50 (µg/ml), pseudovirus neutralization [28]: 0.05 µg/mL; IC50 (µg/ml), pseudovirus neutralization [29]: 1.37 µg/mL; neutralization IC50 [30]: 0.0869 µg/mL; IC50 (µg/ml), pseudovirus neutralization [31]: 14.6 µg/mL; IC50 (µg/ml), pseudovirus neutralization [32]: 9.71 µg/mL; neutralization IC50 [33]: 12.9 µg/mL; IC50, pseudovirus neutralization [34]: 0.1 µg/mL; IC50 (µg/ml), pseudovirus neutralization [35]: 6.66 µg/mL; IC50 (µg/mL), pseudovirus neutralization [9]: 0.059 µg/mL; IC90 (neutralization of pseudovirus) [36]: 6.55 µg/mL; IC50 (µg/mL), pseudovirus neutralization [11]: 0.163 µg/mL
5147_N06 (PGT-130) (antibody) | – | – | > 10 µg/mL | – | 0.0082 µg/mL | 0.01 µg/mL | 0.061 µg/mL | 0.05 µg/mL | 2.43 µg/mL | > 50 µg/mL | 5.18 µg/mL | 2.6 fold | > 50 µg/mL | 0.337 µg/mL | 0.825 µg/mL | 0.4 fold | – | > 10 µg/mL | – | – | –
